Substitutions are numbered along the chain they refer to. Blank lines part the entries; values can stand above or below the binder they belong to.
How the values were obtained:
[1] = biological target: T1, extracellular domain (ECD) of recombinant human Sortilin with a C-terminal HIS tag (ECD-huSortilin-HIS) (human, UniProt Q99523 78-755); test: blocking ELISA, coated ECD-huSortilin-HIS; blocked ligand huPGRN-Biotin
T1 construct: Bought (R&D Systems); also called human sortilin-ECD; not shown: C-terminal HIS tag
T1 sequence: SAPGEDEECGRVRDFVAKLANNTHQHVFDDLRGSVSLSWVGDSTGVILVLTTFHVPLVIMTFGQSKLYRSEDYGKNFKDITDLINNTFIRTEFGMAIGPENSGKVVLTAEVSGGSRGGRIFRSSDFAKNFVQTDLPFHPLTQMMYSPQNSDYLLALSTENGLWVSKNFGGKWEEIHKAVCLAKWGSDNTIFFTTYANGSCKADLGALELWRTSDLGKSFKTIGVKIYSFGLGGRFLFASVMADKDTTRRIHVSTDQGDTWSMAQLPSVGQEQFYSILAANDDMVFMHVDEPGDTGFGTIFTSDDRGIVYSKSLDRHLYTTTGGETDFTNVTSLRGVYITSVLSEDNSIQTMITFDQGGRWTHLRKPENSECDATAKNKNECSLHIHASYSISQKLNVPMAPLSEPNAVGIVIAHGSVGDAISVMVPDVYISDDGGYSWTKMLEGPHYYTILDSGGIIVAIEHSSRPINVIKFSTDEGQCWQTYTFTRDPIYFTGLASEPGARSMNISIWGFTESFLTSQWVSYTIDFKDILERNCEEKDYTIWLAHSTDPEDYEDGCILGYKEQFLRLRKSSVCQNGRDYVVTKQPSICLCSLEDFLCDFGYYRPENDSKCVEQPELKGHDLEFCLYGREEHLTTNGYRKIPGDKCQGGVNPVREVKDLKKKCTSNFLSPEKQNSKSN

[2] = biological target: T2, human sortilin on the cell surface (recombinant huSortilin on HEK 293 cells; endogenous on U251MG cells) (human, UniProt Q99523 78-831); test: cell-based blocking titration (flow cytometry), huSortilin HEK293 cells; blocked ligand 30 nM huPGRN-Biotin
T2 construct: whole, on cells; also called huSortilin expressing HEK293 cells; cell surface huSortilin
T2 sequence (looked up): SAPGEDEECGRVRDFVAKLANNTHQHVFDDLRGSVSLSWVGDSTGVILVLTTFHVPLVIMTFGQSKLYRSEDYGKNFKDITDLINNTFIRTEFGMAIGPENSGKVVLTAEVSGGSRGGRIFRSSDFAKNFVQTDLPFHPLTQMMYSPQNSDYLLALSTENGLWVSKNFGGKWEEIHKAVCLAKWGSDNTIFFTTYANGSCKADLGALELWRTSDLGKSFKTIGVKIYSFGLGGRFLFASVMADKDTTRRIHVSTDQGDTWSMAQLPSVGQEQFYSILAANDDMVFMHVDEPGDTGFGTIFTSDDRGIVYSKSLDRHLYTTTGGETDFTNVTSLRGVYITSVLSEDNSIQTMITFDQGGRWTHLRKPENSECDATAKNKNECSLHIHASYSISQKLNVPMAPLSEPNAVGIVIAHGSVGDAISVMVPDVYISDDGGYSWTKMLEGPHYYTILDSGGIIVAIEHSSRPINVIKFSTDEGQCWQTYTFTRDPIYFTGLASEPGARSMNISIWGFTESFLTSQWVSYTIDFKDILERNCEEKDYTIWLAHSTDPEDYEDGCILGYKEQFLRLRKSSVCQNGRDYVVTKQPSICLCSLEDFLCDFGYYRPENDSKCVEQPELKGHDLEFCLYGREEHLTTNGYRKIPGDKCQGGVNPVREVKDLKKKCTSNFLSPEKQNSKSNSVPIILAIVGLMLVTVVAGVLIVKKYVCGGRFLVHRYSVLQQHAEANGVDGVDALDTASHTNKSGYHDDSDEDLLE
Procedure: Cells were cultured using standard methods. […] Cells were then washed twice in PBS+2% FBS and incubated for 30 minutes on ice with 50 uL per well 1:200 Steptavidin-APC (BD biosciences) in PBS+2% FBS. Cells were then washed as above and resuspended in 100 uL PBS+2% FBS. Data was acquired using the BD LSR II and analyzed using FlowJo software version 10.6 and Microsoft excel.
The cell-based blocking assay was repeated with the top 12 blocking mAbs using a dose titration from 67 nM to 0.4 nM. Blocking assay was carried out as above. Data was analyzed using FlowJo software version 10.6. and GraphPad Prism software.

[3] = biological target: T1, extracellular domain (ECD) of …; test: ELISA, Ab binding to hSortilin-ECD
Procedure: Purified anti-huSortilin mAb binding to huSortilin was characterized by ELISA (ELISA protocol as in Example 1) using a 12 point titration of mAb concentration. mAbs were diluted 2-fold from a starting concentration of 67 nM and then added to ECD-huSortilin-HIS coated plates. Data was analyzed and EC₅₀ (nM) was calculated using graphed Prism. Commercially available goat anti-huSortilin (R&D Biosystems) was used as a positive control. Results are depicted in FIG. 8.

[4] = biological target: T1, extracellular domain (ECD) of …; test: SPR (Biacore T200), mAb captured by anti-mouse antibody on CM5, Sortilin 0.1-300 nM as analyte, global 1:1 fit
Procedure: Analysis was performed using a Biacore T200 to compare the binding affinity of murine anti-huSortilin antibodies to recombinant human Sortilin. Anti-mouse antibody was immobilized on sensor chip CM5 (GE Healthcare Life Sciences) via amine coupling, and mouse antibodies (ligand) were captured to a level to ensure a maximum binding of analyte of 50 RU (approximately 100RU of ligand binding). Various concentrations of Sortilin (ranging from 0.1 nM to 300 nM) were passed over the captured ligand at […] in running buffer (HBS+0.05% P-20, 1 mg/mL BSA) for 180-300s association time and 300-900s dissociation time. Regeneration of the chip surface was accomplished by 2 short injections of 10 mM Glycine-HCl at pH 1.7. Data was blank subtracted to both a sensor not containing ligand and 0 nM analyte concentration. Analysis was performed using a global 1:1 fit with Biacore Insight Evaluation software (v2.0) with bulk refractive index set to zero RU.

[5] = biological target: T3, sortilin array peptides with the consensus motif RTEFGMAIGP (human, not fully specified; array peptides cyclized via a thioether linkage between a C-terminal cysteine and a modified N-terminus); test: PEPperMAP conformational (cyclized) peptide microarray, mAb 10-100 ug/mL
T3 construct: Consensus motif of overlapping 7, 10 and 13 amino acid conformational microarray peptides
T3 peptide: RTEFGMAIGP

[6] = biological target: T1, extracellular domain (ECD) of …; test: blocking ELISA, coated ECD-huSortilin-HIS, purified mAb; blocked ligand huPGRN-Biotin

B2: mouse monoclonal antibody 8H24 (antibody, mouse IgG2c, V domains shown)
VH: QAYLQQSGTELVRPGASVKMSCKASGYTFTSYSMHWVKQTPRQGLEWIGAIYPGNDATSYNQKFKGKATLTVDKSSSTAYMQLSSLTSEDSAVYFCAREGYYGSSFEAWFASWGQGTLVTVSA
VL: DVLMTQTPLSLPVSLGDQASISCRSSQSIVHSNGNTYLEWYLQKPGQSPKLLIYKVSNRFSGVPDRFSGSGSGTDFTLKISRVEAEDLGVYYCFQGSHVLPTFGGGTKLEIK
notes: mouse IgG2c, kappa; also called mu8H24; m8H24
- binding result [5]: binds
- % Blocking at 7.4nM mAb [1]: 89%
- % Max blocking at 11nM mAb [2]: 66%
- EC50 [3]: 0.4 nM
- Kd [4]: 4.56 nM

B4: mouse monoclonal antibody 11M14 (antibody, mouse IgG1, V domains shown)
VH: EVQLVESGGDLVKPGGSLKLSCAASGFTFNIYGMSWVRQTPDKRLEWVATISSGGIYTYYPDILKGRFTISRDNAKNTLYLQMSSLKSEDTAMYYCARHPGGAMDYWGQGTSVTVSS
VL: DIQMTQSPASLSVSVGETVTITCRVSENIYSNLAWYQQKQGKSPHLLVYAATNLADGVPSRFSGSGSGTQYSLKINSLQSEDFGSYYCQHFWGTPPWTFGGGTKLEIK
notes: mouse IgG1, kappa; also called ms11M14
- % Blocking at 7.4nM mAb [1]: 75%
- % Max blocking at 11nM mAb [2]: 48%
- EC50 [3]: 0.8 nM
- Kd [4]: 6.24 nM

B7: mouse monoclonal antibody 2C14 (antibody, mouse IgG1, V domains shown)
VH: EVQLVESGGDLVKPGGSLKLSCAASGFTFNTHGMSWVRQTPDKSLEWVATISTGGFYTSYPDSVKGRFTISRDNAKNTLFLQMSSLKSEDTAMYYCAKSSSHWYFDVWGTGTTVTVSS
VL: DILMTQSPSSMSVSLGDTVSITCHASQGISSNIGWLQQKPGKSFKGLIYHGTNLEDGVPSRFSGSGSGADYSLTISSLEYEDFADYYCVQYAHFPYTFGGGTKLEIK
notes: mouse IgG1, kappa
- % Blocking at 7.4nM mAb [1]: 79%
- % Max blocking at 11nM mAb [2]: 64%
- EC50 [3]: 1 nM
- Kd [4]: 11.8 nM

B8: mouse monoclonal antibody 5E20 (antibody, mouse IgG1, V domains shown)
VH: EVQLVESGGDLVKPGGSLKLSCAAPGFTFSTYGMSWVRQTPDKRLEWVAIISSGGSYTYYSDTVKGRFTISRDNAKNTLYLQMSSLKSEDTAMYYCSRSSSHWYFDVWGTGTTVTVSS
VL: B7 VL with E55K, Y71F, Y80S, Y87F, H93Q, I106K, K107R
notes: mouse IgG1, kappa; also called ms5E20; ms5E20new
- % Blocking at 7.4nM mAb [1]: 76%
- % Max blocking at 11nM mAb [2]: 54%
- EC50 [3]: 1.1 nM
- Kd [4]: 1.59 nM

Other lines, results leading:

- % Blocking at 7.4nM mAb [1]: 67%
- % Max blocking at 11nM mAb [2]: 40%
- EC50 [3]: 0.8 nM
- Kd [4]: 2.21 nM
B1: mouse monoclonal antibody 2P22 (antibody, mouse IgG2b, V domains shown)
VH: EVQLVESGGDLVKPGGSLKLSCAASGFTFSIYGMSWVRQTPDKKLEWVAAISSGGIYTYYPDSVKGRFTISRDNAKNTLYLQMSSLKSADTAMYYCTRNDYDWFAYWGQGTLVTVSA
VL: DIQMTQSPSSLSASLGERVSLTCRASQDIGSSLNWLQQEPDGTIKRLIYATSSLDSGVPKRFSGSRSGSDYSLTISSLESEDFVDYYCLQYASSPYTFGGGTKLEIK
notes: mouse IgG2b, kappa

- % Blocking at 7.4nM mAb [1]: 65%
- % Max blocking at 11nM mAb [2]: 45%
- EC50 [3]: 0.8 nM
B3: mouse monoclonal antibody 9N18 (antibody, mouse IgG2b, V domains shown)
VH: EIQLQQSGPELVKPGASVKISCKASGYSFTGYYMNWVKQSPEKSLEWIGEINPITGGTTYNQNFKAKATLTVDKSSSTAYLQLRSLTSEDSAVYYCASDYFGSNSWFAYWGQGTLVTVSA
VL: B2 VL with S32R, K79R, L100P, P101Y
notes: mouse IgG2b, kappa

- % Blocking at 7.4nM mAb [1]: 76%
- % Max blocking at 11nM mAb [2]: 41%
- EC50 [3]: 0.7 nM
- Kd [4]: 2.81 nM
B5: mouse monoclonal antibody 2F18 (antibody, mouse IgG1, V domains shown)
VH: B4 VH with S53T, I63S, L64V, G101V, M104L
VL: B4 VL with M4V, V25A, A50T, N53T
notes: mouse IgG1, kappa

- % Blocking at 7.4nM mAb [1]: 27%
- % Max blocking at 11nM mAb [2]: 0%
- EC50 [3]: 2.7 nM
- Kd [4]: 2.29 nM
- koff [4]: 0.000411 s⁻¹
- kon [4]: 179000 M⁻¹ s⁻¹
B6: mouse monoclonal antibody 5M13 (antibody, mouse IgG1, V domains shown)
VH: DVQLQESGPGLVKPSQSLSLTCTVTGYSITSDYAWNWIRQFPGNKLEWMGYISSSGSTSYNPSLKSRISVTRDTSKNQFFLQLNFVTAEDTATYYCAFVTTTMDYWGQGTSVTVSS
VL: DVVMTQTPLSLPVSLGDQASISCRSSQSLVHSNGNTYLHWYLQKPGQSPKLLIYTVSNRFSGVPDRFSGSGSGTDFTLKISRVEAEDLGVYFCSQSTHVPFTFGSGTKLEIK
notes: mouse IgG1, kappa

- % Blocking at 7.4nM mAb [1]: 51%
- % Max blocking at 11nM mAb [2]: 33%
- EC50 [3]: 3.8 nM
- Kd [4]: 1.02 nM
- IC50 (read off the curve) [6]: ~5 nM
B9: mouse monoclonal antibody 6B15 (antibody, mouse IgG1, V domains shown)
VH: B8 VH with Y80N, Y95F
VL: B7 VL with S7F, E55K, A69T, Y71F, Y80S, H93Q, I106K, K107R
notes: mouse IgG1, kappa

Source: patent US20230235048A1 (PROTHENA BIOSCIENCES, published 2023)
